Test results taken from patent US20240018526, “DEOXYRIBONUCLEIC ACID-BASED BIOSENSOR AND ASSOCIATED METHODS” (FACible BioDiagnostics LLC, published 2024).

Target: SARS-CoV-2 spike glycoprotein S1 (SARS-CoV-2, UniProt P0DTC2 P0DTC2:14-685)

B1: N6-D2-biotin aptamer (ssDNA)
DNA: CACGGTTCGAGCTGGTACTAAACTTCGCTAAACAACACGCAGCATTTCATCGGGTCCAAAAGGGGCTGCTCGGGATTGCGGATATGGACCCGTCAGCTTA
modifications: 5'-biotin (5BiosG), as SEQ ID NO 96
**Q.** Does B1 bind?
**A.** binds
